Some results are limits rather than exact numbers.

The conditions of experiment [1]: at best, in about 40% of patients (Dworkin, 2002); cited from earlier work.
The subject of experiment [2] is cultured rat dorsal root ganglion (DRG) neurons. The experiment is described as follows: Dorsal root ganglion in vitro current clamp electrophysiology. The experiment is classed as cell-based. The conditions noted are these: 25 μg/ml; for number of evoked action potentials: compared with vehicle or control antibody, administration at time=2 minutes. The method, then:
Dorsal Root Ganglia were isolated from 1-2 wild-type rat pups, aged between postnatal day 1 and 3. Ganglia were washed in PBS after dissection and immediately placed into a DMEM (Lonza, #BE12-604F) solution containing 2 mg/ml collagenase (Sigma-Aldrich, #C2674) and incubated at 37° C. for approximately 45 minutes for enzymatic digestion. Collagenase solution was removed and replaced with DMEM supplemented with 10% Fetal Bovine Serum (Lonza, #DE14802F), 0.5 mM L-Glutamine (Lonza, #BE17-605E), 1% Penicillin/Streptomycin (Lonza, #BE17-603E) and 20 ng/ml nerve growth factor (NGF, Invitrogen). Ganglia were then mechanically triturated, centrifuged at 1000 g for 5 minutes, and resuspended in the same culture medium. Dissociated cells were counted and diluted to a suspension of 100,000-120,000 cells/ml on glass coverslips precoated with 50 μg/ml poly-D-lysine (Sigma) and 30 μg/ml laminin (Invitrogen) and incubated at 37° C., 5% CO2 until ready for use.
Dissociated DRG were taken for use no more than two days in vitro (DIV) following preparation. Cells were visualized on an Olympus BX50WI upright microscope with an Ikegami ICD-42B CCD camera. […] All recordings were acquired using pClamp 10 software (Molecular Devices) and subsequently analyzed in Clampfit 10 (Molecular Devices). […] The liquid junction potential was calculated to be 14.2 mV, all reported voltages have been corrected to compensate.
After formation of a tight seal (>1 GΩ) by release of positive pressure and manual suction in voltage clamp mode, capacitative currents were compensated and the command voltage was set to −70 mV. […] Whole cell parameters were recorded after dialysis. […] The amplifier was switched to current clamp mode and the resting membrane potential was recorded. […]
Cells were subsequently treated either with control or antibody solutions by fast bath perfusion directly on to the recorded cell for 90 seconds to sufficiently fill the recording chamber, at which point both perfusion and aspiration were halted. […]

Experiment [3] addresses T1, Mouse domain B loop E1 peptide B11 (Nav 1.7) (Mus musculus, UniProt Q62205).
T1 construct: host or cells: synthetic peptide
Nature of the experiment: Peptide binding ELISA, mouse B11 peptide. The method, then: (§1) Nunc 96 well plates were coated overnight at 4° C. in 5 ug/ml Streptavidin (Jackson 016-000-114) 100 ul/well in carbonate coating buffer. Plates were washed four times in PBS/tween and 200 ul/well of block (1% BSA in PBS) was added for 1 hour at RT. Plates were washed four times in PBS/tween and 100 ul/well of biotinylated peptide at 5 ug/ml was added for 1 hour at RT. Plates were washed four times in PBS/tween and 100 ul/well of antibody added (starting at 10 ug/ml diluting in block in half logs down the plate) for 1 hour at RT. Plates were washed four times in PBS/tween and […] goat anti rabbit Fc HRP (Jackson 111-036-046) added for 1 hour at RT. Plates were washed four times in PBS/tween and 100 ul/well TMB (3,3′,5,5′ Tetramethylbenzidine) solution added. 50 ul/well of NaF was added to stop reaction and absorbance read at 630 nm.

For experiment [4], the target named is T2, Nav 1.7 peptide B11.7 (Homo sapiens, UniProt Q15858).
T2 construct: host or cells: synthetic peptide captured on streptavidin plates
Nature of the experiment: Peptide binding ELISA, cyclic Nav 1.7 peptide B11.7. The conditions noted are these: biotinylated cyclic peptide on streptavidin plate. Here is the method: as §1

Experiment [5] deals with T3, Human domain B loop E1 peptide B11 (Nav 1.7) (Homo sapiens, UniProt Q15858).
T3 construct: host or cells: synthetic peptide
Nature of the experiment: Peptide binding ELISA, human B11 peptide. The method, then: as §1
On the technique in general: ELISA stands for enzyme-linked immunosorbent assay.

Experiment [6] deals with T4, human Nav1.7 channel (Homo sapiens, UniProt Q15858).
T4 construct: host or cells: HEK293
T4 sequence (Q15858 whole entry): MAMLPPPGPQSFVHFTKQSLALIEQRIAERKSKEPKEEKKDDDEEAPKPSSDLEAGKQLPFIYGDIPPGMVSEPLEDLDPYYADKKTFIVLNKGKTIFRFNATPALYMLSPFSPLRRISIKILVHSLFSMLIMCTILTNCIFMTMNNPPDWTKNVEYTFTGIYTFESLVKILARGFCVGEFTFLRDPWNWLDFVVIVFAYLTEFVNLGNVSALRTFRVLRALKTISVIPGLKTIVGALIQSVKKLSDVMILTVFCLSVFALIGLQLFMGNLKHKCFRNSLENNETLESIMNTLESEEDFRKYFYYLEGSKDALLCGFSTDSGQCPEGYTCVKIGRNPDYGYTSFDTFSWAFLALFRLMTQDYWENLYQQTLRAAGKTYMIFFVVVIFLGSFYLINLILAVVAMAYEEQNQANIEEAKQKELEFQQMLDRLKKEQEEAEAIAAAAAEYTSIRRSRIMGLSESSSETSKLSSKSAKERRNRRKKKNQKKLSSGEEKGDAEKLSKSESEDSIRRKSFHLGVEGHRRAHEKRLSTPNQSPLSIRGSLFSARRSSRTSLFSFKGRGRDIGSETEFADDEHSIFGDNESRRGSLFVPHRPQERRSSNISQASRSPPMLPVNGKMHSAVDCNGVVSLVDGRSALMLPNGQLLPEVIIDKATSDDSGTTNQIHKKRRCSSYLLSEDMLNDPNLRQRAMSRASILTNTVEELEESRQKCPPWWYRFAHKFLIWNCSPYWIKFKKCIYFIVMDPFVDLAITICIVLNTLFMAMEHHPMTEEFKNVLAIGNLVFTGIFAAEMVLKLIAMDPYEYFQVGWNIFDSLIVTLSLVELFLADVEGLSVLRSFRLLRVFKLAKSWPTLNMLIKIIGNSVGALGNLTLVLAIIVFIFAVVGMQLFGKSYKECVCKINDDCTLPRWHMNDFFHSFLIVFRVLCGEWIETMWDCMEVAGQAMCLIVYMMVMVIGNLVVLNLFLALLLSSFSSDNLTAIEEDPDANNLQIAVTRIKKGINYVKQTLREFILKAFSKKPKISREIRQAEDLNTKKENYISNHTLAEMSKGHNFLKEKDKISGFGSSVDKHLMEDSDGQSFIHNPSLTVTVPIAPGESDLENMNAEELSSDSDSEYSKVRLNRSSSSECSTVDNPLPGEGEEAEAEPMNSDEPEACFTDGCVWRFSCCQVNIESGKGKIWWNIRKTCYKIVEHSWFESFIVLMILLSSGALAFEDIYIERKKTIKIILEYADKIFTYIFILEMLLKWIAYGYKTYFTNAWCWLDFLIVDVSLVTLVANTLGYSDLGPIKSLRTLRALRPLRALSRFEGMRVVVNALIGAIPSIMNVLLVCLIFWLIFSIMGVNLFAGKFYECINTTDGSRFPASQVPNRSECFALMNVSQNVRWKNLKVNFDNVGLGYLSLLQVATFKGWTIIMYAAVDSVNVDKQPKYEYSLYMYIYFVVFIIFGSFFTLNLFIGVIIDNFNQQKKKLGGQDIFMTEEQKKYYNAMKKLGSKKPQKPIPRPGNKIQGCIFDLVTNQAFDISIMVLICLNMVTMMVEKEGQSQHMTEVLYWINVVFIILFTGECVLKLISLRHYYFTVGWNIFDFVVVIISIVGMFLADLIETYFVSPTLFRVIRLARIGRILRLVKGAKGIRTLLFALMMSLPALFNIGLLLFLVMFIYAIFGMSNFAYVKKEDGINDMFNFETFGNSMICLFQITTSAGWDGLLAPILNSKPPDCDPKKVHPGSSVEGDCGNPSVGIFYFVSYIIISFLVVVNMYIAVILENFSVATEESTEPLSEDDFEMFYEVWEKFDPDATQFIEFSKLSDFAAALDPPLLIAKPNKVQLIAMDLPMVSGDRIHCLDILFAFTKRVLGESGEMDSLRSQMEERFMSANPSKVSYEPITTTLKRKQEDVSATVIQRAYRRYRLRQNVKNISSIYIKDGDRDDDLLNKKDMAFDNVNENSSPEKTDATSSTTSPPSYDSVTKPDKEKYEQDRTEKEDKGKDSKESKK
The experiment is described as follows: PatchXpress h Nav1.7 assay (automated Patch Clamp, HEK cells). The experiment is classed as cell-based. The conditions noted are these: for dose dependence of inhibition of human Nav1.7 currents: recombinant human Nav1.7 in HEK cells, repeated voltage step protocol, end point. Here is the method:
Extracellular solution contained (in mM): 130 NaCl, 4 KCl, 1.5 CaCl2, 1 MgCl2, 30 glucose, 10 HEPES (pH 7.4 with Tris-Base, and 300 to 305 mOsmolar). Intracellular solution contained (in mM): 5 NaCl, 115 CsF, 20 CsCl, […], 10 EGTA free acid (pH 7.2 with CsOH, and 290 to 295 mOsmolar) and was either made fresh or kept frozen. Extracellular and intracellular solutions were filtered prior to use. Antibodies were directly diluted in extracellular solution and were freshly (no more than 15 min) prepared before transfer to a 96-well polypropylene compound plate (Sarsted, #83.1835.500). For the experiments using selective peptide, antibodies and peptides, at equal concentrations, were preincubated at least 30-min at 4° C. prior Patch Clamp experiments.
HEK293 cells stably expressing the human Nav1.7 channel (type IX voltage-gated sodium channel alpha subunit) were purchased from Upstate (Upstate, Millipore, cat.#CYL3011). Cells were cultured in T-75 (BD BioCoat™ Collagen I Cellware, Becton Dickinson Labware, Bedford, Mass., #356485) flasks coated with collagen type I using standard culture medium DMEM-F12 with-Glutamine (Invitrogen, #11320) containing 10% FBS (Lonza, #DE14-802F), 1% penicillin+streptomycin (Lonza, DE17-603E), 1% non essential amino acids (Lonza, BE13-114E) and 400 μg/ml G418 (GIBCO, #10131-027). Cells were plated at a density of 15,000 cells/cm2 or 8,000 cells/cm2 density for 2 or 3 days respectively before being used on PatchXpress® 7000A (Axon instrument, new part of MDS Analytical Technologies). Cells confluence never exceeded 90%. The day of the experiment, cells were harvested using Accumax (Sigma, A7089). Briefly, cells were washed twice in PBS (Lonza, #BE12-516F) without calcium and magnesium, and a 1:4 dilution of Accumax solution was added and incubated for 1.5 to 2-min at 37° C. DMEM-F12 with 15 mMHEPES and L-glutamine (Lonza, #BE12-719F) containing 10% FBS (recovery media) was added to quench Accumax digestion. The cells were subsequently centrifuged at 1,000 rpm for 5-min in 50 ml falcon tube and pellets are resuspended in 10 ml of recovery media. Cells are counted (CoulterZ2) and suspended at ˜0.1 million cells/ml and transferred to a 15 ml screw-cap tube for minimum 90 minutes at room temperature. Cells were then centrifuged for 60-s at 1,000 rpm. The pellet was gently resuspended in 1,000 μl extracellular solution and centrifuged a second time for 30-s at 1,000 rpm. Pellet was resuspended in 150 μL extracellular solution and immediately tested on the PatchXpress®. […]
After 10-s, the pressure was switched from +4 to −30 mmHg to attract suspended cells to each of the 16 holes (electrodes). […] The cell was allowed to dialyze for 5 min, during which the access resistance was monitored. […]
(The patch-clamp technique gives a direct electrical read-out from membranes.)

The target of experiment [7] is T5, rat Nav1.7 channels (Rattus norvegicus, UniProt O08562).
T5 construct: expressed in transfected cells; host or cells: HEK cells
T5 sequence (O08562 whole entry): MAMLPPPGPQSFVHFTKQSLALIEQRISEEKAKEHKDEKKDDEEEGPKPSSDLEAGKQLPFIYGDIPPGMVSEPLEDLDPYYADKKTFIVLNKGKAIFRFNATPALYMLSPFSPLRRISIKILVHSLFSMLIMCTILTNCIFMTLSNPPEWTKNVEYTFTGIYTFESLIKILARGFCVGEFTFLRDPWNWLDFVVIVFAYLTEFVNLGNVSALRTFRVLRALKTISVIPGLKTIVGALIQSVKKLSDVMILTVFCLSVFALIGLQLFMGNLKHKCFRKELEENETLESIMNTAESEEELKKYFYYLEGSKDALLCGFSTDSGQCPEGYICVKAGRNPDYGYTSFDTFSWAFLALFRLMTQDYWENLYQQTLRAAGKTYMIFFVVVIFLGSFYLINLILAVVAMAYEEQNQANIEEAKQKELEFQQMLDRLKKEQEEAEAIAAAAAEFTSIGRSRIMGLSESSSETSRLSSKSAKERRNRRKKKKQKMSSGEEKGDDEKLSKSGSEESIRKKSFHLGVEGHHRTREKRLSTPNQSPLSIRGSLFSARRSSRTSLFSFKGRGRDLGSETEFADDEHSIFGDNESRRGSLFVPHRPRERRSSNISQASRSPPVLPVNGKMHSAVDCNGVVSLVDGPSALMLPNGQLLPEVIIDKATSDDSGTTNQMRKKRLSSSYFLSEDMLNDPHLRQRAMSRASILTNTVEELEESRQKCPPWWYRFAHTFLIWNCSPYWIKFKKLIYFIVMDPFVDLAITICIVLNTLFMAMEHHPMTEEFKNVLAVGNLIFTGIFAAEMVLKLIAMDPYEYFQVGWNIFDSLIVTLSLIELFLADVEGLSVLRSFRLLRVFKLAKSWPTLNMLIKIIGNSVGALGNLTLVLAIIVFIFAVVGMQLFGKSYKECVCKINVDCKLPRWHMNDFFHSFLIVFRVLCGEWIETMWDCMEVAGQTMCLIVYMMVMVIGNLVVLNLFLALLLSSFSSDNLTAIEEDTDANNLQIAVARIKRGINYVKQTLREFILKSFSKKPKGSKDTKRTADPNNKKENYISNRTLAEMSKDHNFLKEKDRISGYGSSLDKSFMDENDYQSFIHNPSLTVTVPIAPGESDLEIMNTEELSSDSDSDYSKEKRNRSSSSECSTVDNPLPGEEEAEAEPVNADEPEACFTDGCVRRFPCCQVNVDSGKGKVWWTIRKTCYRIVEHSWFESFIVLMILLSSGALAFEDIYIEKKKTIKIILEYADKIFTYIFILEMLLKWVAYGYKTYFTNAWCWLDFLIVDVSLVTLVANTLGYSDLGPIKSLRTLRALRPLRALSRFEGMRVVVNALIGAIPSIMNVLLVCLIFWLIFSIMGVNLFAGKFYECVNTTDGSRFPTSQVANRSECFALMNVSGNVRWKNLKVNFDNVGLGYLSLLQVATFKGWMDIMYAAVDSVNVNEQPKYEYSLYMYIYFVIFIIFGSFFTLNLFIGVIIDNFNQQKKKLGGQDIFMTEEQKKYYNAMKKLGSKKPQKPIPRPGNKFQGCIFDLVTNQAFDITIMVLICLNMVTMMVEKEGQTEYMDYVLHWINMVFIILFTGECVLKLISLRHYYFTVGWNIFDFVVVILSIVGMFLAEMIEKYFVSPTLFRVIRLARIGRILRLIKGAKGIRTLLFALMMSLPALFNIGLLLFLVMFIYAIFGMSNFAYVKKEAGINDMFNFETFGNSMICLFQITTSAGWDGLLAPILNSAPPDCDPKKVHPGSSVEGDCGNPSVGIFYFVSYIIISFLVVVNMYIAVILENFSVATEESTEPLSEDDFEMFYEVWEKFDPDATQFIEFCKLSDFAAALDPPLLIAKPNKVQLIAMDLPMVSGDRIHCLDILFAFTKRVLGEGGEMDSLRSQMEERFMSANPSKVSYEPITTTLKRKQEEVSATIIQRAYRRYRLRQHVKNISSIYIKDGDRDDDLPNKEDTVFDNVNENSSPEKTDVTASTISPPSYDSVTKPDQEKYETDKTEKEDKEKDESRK
The experiment is described as follows: Automated Patch Clamp analysis of recombinant rat Nav1.7 channels expressed in HEK cells. It counts as cell-based. The conditions noted are these: recombinant rat Nav1.7 in HEK cells. An excerpt: Automated Patch Clamp analysis of recombinant rat Nav1.7 channels expressed in HEK cells. […] Data points represent the normalized peak current amplitudes after application of a repeated voltage step protocol (end point) in the presence of antibody.

As to `NCC1(CC(=O)O)CCCCC1` [gabapentin], the pain reduction in experiment [1] is recorded as ≤ 50%.

B1: CA167_00932: rabbit anti-Nav1.7 monoclonal antibody, A32-specific; VH SEQ ID NO:140, VL SEQ ID NO:139 (antibody, V domains shown)
VH: QSLEESGGRLVTPGTPLTLTCTVSGFSLSRYWMSWVRQAPGKGLEWIGNIGGGSGSTLYAPWAKGRSTISKTSTTVDLKITSPTTEDTATYFCGRYVKNGGGYRLDLWGPGTLVTVS
VL: AAVLTQTPSSVSAAVGGTVTIKCQSSQSVYNNNEFSWYQQKPGQPPKLLIYDASKLASGVPSRFSGSGSGTQFTLTISGVQCDDVATYYCLGGYNDDTNRWAFGGGTEVVVE
modifications: derived from rabbit
Take B1: the “number of evoked action potentials” value in experiment [2] is on record as “significantly reduced”.

B2: CA167_00983: rabbit anti-Nav1.7 monoclonal antibody, B11-specific; VH SEQ ID NO:148, VL SEQ ID NO:147 (antibody, V domains shown)
VH: QSVEESGGRLVTPGTPLTLTCTVSGFSLSNYAMSWVRQAPGKGLEWIGIIGKSGSTAYASWAKGRFTISRTSTTVDLEITSPTTEDTATYFCVRFVLLWGPGTLVTVS
VL: AQVLTQTASPVSAAVGGTVTINCQSSQSVYKNNDLAWYQQKPGQPPKLLIYYASTLASGVSSRFKGSGSGTEFTLTISDAQCDDAATYYCLGSYDCSSADCNAFGGGTKVVVK
modifications: derived from rabbit
Take B2: in experiment [3], the “ELISA binding to Mouse domain B loop E1 peptide B11” value is listed as “binding”. The “ELISA binding to Nav 1.7 peptide (B11.7)” value in experiment [4] is “specific binding”. In addition, in experiment [5], the “ELISA binding to Human domain B loop E1 peptide B11” value is given as “binding”. Moreover, the “number of evoked action potentials” value in experiment [2] is “significantly reduced”. In experiment [6] (25 μg/ml, stimulation only at end, after incubation of antibody), the “human Nav1.7 current when stimulated only at the end of the protocol” value is given as “does not produce an inhibition of the Nav1.7 current”. Further, in experiment [6] (25 μg/ml, voltage step protocol at 0.1 Hz for ~20 minutes), the “human Nav1.7 currents under repeated activation” value was “reduced in the presence of the antibody (25 μg/ml) but only when repeated activation of the channel at 0.1 Hz is maintained”. Further, the “dose dependence of inhibition of human Nav1.7 currents” value in experiment [6] is “dose-dependent inhibition”. In addition, in experiment [7] (repeated voltage step protocol, end point), the “dose dependence of inhibition of rat Nav1.7 currents” value is listed as “dose-dependent inhibition”.

B3: CA167_01080: rabbit anti-Nav1.7 monoclonal antibody, B11-specific; VH SEQ ID NO:176, VL SEQ ID NO:175 (antibody, V domains shown)
VH: QSLEESGGRLVTPETPLTLTCTASGIDLSKWPMTWVRQAPGKGLEWIGIIGRSGSTNYASWAKGRFTISKTSTTVDLKMTSPTTEDTATYFCARGGSYYDLWGQGTLVTVS
VL: AQVLTQTASPVSAAVGNTVTITCQSSQSVWKNNDLSWYQQKLGQPPKLLIYYASTLASGVSSRFKASGSGTQFTLTISDVQCDDAGTYYCVGSYDCSSADCNAFGGGTKVVVK
modifications: derived from rabbit
Regarding B3, the “ELISA binding to Mouse domain B loop E1 peptide B11” value in experiment [3] was “binding”. For the same molecule, the “ELISA binding to Nav 1.7 peptide (B11.7)” value in experiment [4] was “specific binding”. Besides, the “ELISA binding to Human domain B loop E1 peptide B11” value in experiment [5] is “binding”. Further, in experiment [2] (normalized to frequency at time 0), the “electrically induced spike frequency of DRG neurons” value is “reduces”. The “dose dependence of inhibition of human Nav1.7 currents” value in experiment [6] is given as “dose-dependent inhibition”. For the same molecule, the “inhibition of rat Nav1.7 currents” value in experiment [7] (25 μg/ml) is recorded as ~26%.

Source of the values: patent US8986954B2, “DNA encoding function modifying Nav1.7 antibodies” (UCB Pharma S.A., priority 2009, dated 2015).
